Results from publication doi:10.1101/2024.12.17.628836.
Values joined by “and” are separate entries in the source; they are usually repeats but may differ in a detail not shown here. Equal entries are not always repeated.

Biological target: standard human 20S proteasome, immunopurified from HEK293-EBNA cells (human)
Test: mass photometry

percent of total 20S bound at a PA200:20S molar ratio of 8: > 60%
stoichiometry N (PA200 per 20S): 1 and 2
Substance: recombinant human PA200 (proteasome activator 200) (from UniProt Q14997 1-1843) (natural protein)
